Measurements from patent US20110091480A1 (published 2011).

Key:
[1] = target: T1, ORF0657t (ORF0657n fragment from amino acid 42 to amino acid 486 of SEQ ID NO: 1) (S. aureus, UniProt A5IS15 42-486); assay: SPR Biacore 3000, ORF0657t bound to the surface, antibody fragment as analyte
T1 construct: also called ORFO657t

[2] = target: T2, ORF0657n-H/y (SEQ ID NO: 3) (S. aureus, UniProt A6QG30 42-609); assay: Western blot (dot blot confirmed by Western)
T2 construct: also called Yeast expressed ORF0657n-H/y antigen
T2 sequence (A6QG30 42-609, tags left off): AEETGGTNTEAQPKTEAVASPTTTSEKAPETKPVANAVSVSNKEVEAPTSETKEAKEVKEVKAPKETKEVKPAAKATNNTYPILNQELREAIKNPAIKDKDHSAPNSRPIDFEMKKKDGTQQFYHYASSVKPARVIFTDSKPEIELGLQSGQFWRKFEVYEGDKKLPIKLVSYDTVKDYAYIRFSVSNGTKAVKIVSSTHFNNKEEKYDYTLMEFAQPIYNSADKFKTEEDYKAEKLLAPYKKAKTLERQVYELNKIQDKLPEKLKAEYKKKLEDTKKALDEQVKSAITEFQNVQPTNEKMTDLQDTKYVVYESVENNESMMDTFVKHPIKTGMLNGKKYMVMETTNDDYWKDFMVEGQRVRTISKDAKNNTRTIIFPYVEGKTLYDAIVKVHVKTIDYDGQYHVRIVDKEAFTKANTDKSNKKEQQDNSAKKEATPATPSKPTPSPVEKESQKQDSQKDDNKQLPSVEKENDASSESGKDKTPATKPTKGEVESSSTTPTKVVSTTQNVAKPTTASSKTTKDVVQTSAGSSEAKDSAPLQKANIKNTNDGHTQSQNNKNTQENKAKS

[3] = target: T1, ORF0657t (ORF0657n fragment from amino …); assay: SPR Biacore 3000, IgG captured as ligand, ORF0657t as analyte
[4] = target: T3, ORF0657t CNBr fragment [114-214] (Band 10 kDa) (S. aureus, UniProt A5IS15 154-254); assay: Western blot of CNBr cleavage products of ORF0657t with 2H2 mAb (Band 10 kDa)
T3 construct: also called 10 kDa band
T3 sequence: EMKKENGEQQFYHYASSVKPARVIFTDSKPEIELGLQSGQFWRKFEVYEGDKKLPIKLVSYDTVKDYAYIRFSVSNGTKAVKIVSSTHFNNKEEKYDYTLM

[5] = target: T4, ORF0657t CNBr fragment [357-446] (Band 10 kDa) (S. aureus, UniProt A5IS15 397-486); assay: as above
T4 construct: also called 10 kDa band
T4 sequence (A5IS15 397-486): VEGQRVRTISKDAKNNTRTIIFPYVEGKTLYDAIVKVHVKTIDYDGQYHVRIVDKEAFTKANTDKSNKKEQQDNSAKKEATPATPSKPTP

[6] = target: T5, ORF0657t CNBr fragment [215-302] (Band 10 kDa) (S. aureus, UniProt A5IS15 255-342); assay: as above
T5 construct: also called 10 kDa band
T5 sequence: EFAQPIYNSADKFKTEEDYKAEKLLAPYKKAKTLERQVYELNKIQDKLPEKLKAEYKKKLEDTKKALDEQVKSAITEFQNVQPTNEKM

[7] = target: T6, ORF0657t CNBr fragment [116-302] (Band 25 kDa) (S. aureus, UniProt A5IS15 156-342); assay: Western blot of CNBr cleavage products of ORF0657t with 2H2 mAb (Band 25 kDa)
T6 construct: also called 25 kDa band
T6 sequence: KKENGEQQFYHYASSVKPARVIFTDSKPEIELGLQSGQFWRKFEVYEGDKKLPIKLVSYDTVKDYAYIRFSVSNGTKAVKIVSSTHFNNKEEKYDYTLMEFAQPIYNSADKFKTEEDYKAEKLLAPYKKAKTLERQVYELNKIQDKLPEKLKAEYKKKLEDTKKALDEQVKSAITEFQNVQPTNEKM

[8] = target: T7, ORF0657t CNBr fragment [001-214] (Band 25 kDa) (S. aureus, UniProt A5IS15 42-254); assay: as above
T7 construct: also called 25 kDa band
T7 sequence: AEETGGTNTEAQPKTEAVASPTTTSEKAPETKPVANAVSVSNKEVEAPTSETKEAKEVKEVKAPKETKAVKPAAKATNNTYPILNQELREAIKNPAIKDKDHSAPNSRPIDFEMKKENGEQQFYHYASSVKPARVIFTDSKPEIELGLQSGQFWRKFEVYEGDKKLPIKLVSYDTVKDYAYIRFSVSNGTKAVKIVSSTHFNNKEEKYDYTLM

[9] = target: T8, ORF0657t CNBr fragment [001-323] (Band 35 kDa) (S. aureus, UniProt A5IS15 42-363); assay: Western blot of CNBr cleavage products of ORF0657t with 2H2 mAb
T8 construct: also called 35 kDa band
T8 sequence: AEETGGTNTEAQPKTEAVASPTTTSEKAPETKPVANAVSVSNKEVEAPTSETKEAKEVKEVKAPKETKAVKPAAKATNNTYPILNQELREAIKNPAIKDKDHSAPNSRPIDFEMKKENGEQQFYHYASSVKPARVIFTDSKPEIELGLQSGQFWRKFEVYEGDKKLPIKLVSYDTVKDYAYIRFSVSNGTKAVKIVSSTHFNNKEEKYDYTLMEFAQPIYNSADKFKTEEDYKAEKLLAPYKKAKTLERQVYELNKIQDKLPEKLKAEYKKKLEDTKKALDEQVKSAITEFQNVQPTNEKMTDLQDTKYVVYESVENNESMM

[10] = target: T9, ORF0657t CNBr fragment [215-356] (Band 15 kDa) (S. aureus, UniProt A5IS15 255-396); assay: Western blot of CNBr cleavage products of ORF0657t with 2H2 mAb (Band 15 kDa)
T9 construct: also called 15 kDa band

[11] = target: T10, ORF0657t CNBr fragment [303-446] (Band 15 kDa) (S. aureus, UniProt A5IS15 343-486); assay: as above
T10 construct: also called 15 kDa band
T10 sequence (A5IS15 343-486): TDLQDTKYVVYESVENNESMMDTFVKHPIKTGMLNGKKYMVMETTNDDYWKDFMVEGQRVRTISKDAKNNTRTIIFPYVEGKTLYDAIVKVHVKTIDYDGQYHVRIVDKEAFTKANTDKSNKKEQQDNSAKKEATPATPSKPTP

B1: 2H2 scAb (scFv)
scFv: DIVMTQSPAIMSASPGEKITMTCSASSSVSYIYWYQQKSGTSPKRWIYDTSKLASGVPFRFSGGGSGTSFSLTISSMEAEDAATYYCQQWSSNPLTFGAGTKLEIKRGGGGSGGGGSGGGGSGGGGSDVHLVESGPGLVAPSQNLSITCTVSGFSLSRYGVHWVRQPPGKGLEWLGLIWAGGVTIYNSTLMSRLSISKDSSKSQVFLKMNSLQIDDTAIYYCAREASRDHYFDYWGQGTTLTVSSRTVAAPSVFIFPPSDEQLKSGTASVVCLLNNFYPREAKVQWKVDNALQSGNSQESVTEQDSKDSTYSLSSTLTLSKADYEKHKVYACEVTHQGLSSPVTKSFNRGEC
notes: domain: human kappa light chain constant domain; also called 2H2 clone; scFv with a Human Kappa chain tag
**Q.** With B1 as the binder, how does the Kd [1] read?
**A.** 39 nM

**Q.** What about the koff [1] of the same binder?
**A.** 0.00191 s⁻¹

**Q.** And the kon [1]?
**A.** 49100 M⁻¹ s⁻¹

B2: mAb 2H2.B8 (antibody, V domains shown)
VH: DVHLVESGPGLVAPSQNLSITCTVSGFSLSRYGVHWVRQPPGKGLEWLGLIWAGGVTIYNSTLMSRLSISKDSSKSQVFLKMNSLQIDDTAIYYCAREASRDHYFDYWGQGTTLTVSS
VL: DIVMTQSPAIMSASPGEKITMTCSASSSVSYIYWYQQKSGTSPKRWIYDTSKLASGVPFRFSGGGSGTSFSLTISSMEAEDAATYYCQQWSSNPLTFGAGTKLEIKR
notes: also called 2H2.B8 (IgG1)
**Q.** Does B2 bind [2]?
**A.** binds

B3: 2H2 IgG chimera (antibody, V domains shown)
VH: B2 VH
VL: B2 VL
notes: also called chimeric antibody; Mouse 2H2 Variable and Human IgG1 / Human Kappa Constant Region
**Q.** How did the Kd [3] turn out when B3 was run?
**A.** 25 nM

**Q.** What about the koff [3] of the same binder?
**A.** 0.00273 s⁻¹

**Q.** And the kon [3]?
**A.** 110000 M⁻¹ s⁻¹

B4: mAb 2H2.BE11 (antibody, V domains shown)
VH: B2 VH
VL: B2 VL
notes: also called 2H2.BE11 (IgG2b); 2H2 mAb
**Q.** Does B4 bind [4]?
**A.** no binding

**Q.** Does B4 bind [5]?
**A.** no binding

**Q.** Does B4 bind [6]?
**A.** no binding

**Q.** What about the Kd [3] of the same binder?
**A.** 33 nM

**Q.** What about the koff [3] of the same binder?
**A.** 0.00201 s⁻¹

**Q.** What about the kon [3] of the same binder?
**A.** 61000 M⁻¹ s⁻¹

**Q.** Does B4 bind [7]?
**A.** no binding

**Q.** Does B4 bind [8]?
**A.** no binding

**Q.** Does B4 bind [9]?
**A.** no binding

**Q.** Does B4 bind [10]?
**A.** no binding

**Q.** Does B4 bind [11]?
**A.** no binding
